Reference: patent US20130022611A1, “METHODS AND COMPOSITIONS FOR MODULATING HEPSIN ACTIVATION OF UROKINASE-TYPE PLASMINOGEN ACTIVATOR” (Genentech, Inc., priority 2006, published 2013)

How the values were obtained:
pro-uPA = biological target: T1, pro-uPA (Homo sapiens, UniProt P00749); test: First-order kinetics of pro-uPA activation by serine proteases; assay type: biochemical; conditions: for Added pro-uPA converted during the experiment / First-order rate constant k ± SD: 30 nM pro-uPA, 3 nM enzyme; for First-order rate constant k ± SD: room temperature, 5 experiments; for Efficiency of pro-uPA activation compared to matriptase: kcat/Km ratio
T1 construct: time-dependent cleavage of the single-chain form into the two-chain form; purchased Cortex Biochem (San Leandro, Calif.)
Experimental: The Km and kcat values for pro-uPA activation could not be accurately determined because the pro-uPA stock solution from the supplier (0.8 mg/ml) was not sufficiently high. Therefore, we chose to determine the first-order rate constant k as a measure of pro-uPA conversion efficiency. It was ensured that the pro-uPA concentration used (30 nM) was in the range of first-order kinetics for the enzymes tested, i.e. hepsin, plasmin and matriptase. The rate of uPA formation by these enzymes was linear up to 200 nM of pro-uPA. Pro-uPA (30 nM) was added to the enzymes (3 nM) in Hepes buffer to start the reaction at room temperature. At various time points, 50-μl aliquots were removed and added to 150 μl of 667 nM HAI-2 (final concentration in 250 μl was 400 nM) in Hepes buffer to stop further pro-uPA cleavage. […] Our results on HAI-2 inhibition of plasmin and HGFA (data not shown) were consistent with the published data (26,27). After addition of 50 μl of 2.5 mM S2444, the increase in absorbance at 405 nm was measured on a kinetic microplate reader. The concentration of uPA in each aliquot was calculated from a standard curve of enzymatically converted pro-uPA. The data were expressed as the decrease in the concentration of pro-uPA (log [pro-uPA]) as function of time. The first-order rate constant k was calculated from the slope using the equation
log [S]=−(k/2.3)t+log [S]0
where [S] is the concentration of pro-uPA and [S]0 is the initial pro-uPA concentration. The catalytic efficiency, kcat/Km, was then calculated using the known enzyme concentration [E] and the relationship k=(kcat/Km)[E]. The values are the average of 5 experiments±SD.

pro-tPA = biological target: T2, pro-tPA (Homo sapiens, UniProt P00750); test: Pro-tPA cleavage analysed by SDS-PAGE; assay type: biochemical; conditions: 1.5 μM pro-tPA, 15 nM enzyme, 10 and 60 min
T2 construct: purchased Biodesign International (Saco, Me.)
T2 sequence (P00750 36-562): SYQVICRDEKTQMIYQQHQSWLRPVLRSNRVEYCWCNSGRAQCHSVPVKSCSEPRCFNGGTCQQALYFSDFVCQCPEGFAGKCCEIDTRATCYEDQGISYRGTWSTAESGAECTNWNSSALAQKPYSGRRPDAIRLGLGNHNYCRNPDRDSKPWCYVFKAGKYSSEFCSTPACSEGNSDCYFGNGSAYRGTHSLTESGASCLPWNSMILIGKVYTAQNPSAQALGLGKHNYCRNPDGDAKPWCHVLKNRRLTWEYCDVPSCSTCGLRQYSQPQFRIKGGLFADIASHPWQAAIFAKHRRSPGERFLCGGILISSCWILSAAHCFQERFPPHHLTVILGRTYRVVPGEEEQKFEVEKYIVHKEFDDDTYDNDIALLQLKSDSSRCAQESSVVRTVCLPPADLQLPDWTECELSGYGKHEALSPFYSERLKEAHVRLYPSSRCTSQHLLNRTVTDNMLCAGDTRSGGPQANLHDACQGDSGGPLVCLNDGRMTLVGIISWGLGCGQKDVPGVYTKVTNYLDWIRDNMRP
Experimental: Pro-uPA at a concentration of 1.5 μM was incubated with 15 nM hepsin or 15 nM plasmin in Hepes buffer at room temperature. […] The samples were analyzed by SDS-PAGE using a 4-20% gradient gel (Invitrogen; Carlsbad, Calif.). Protein was visualized after staining with SimplyBlue Safe Stain (Invitrogen). Experiments with pro-tPA (1.5 μM) were carried out identically, except that the buffer used was 50 mM sodium phosphate pH 7.5, 200 mM arginine, 0.01% Tween-20.

uPA [1] = biological target: T3, uPA (Homo sapiens, UniProt P00749); test: Chromogenic activity towards S2444 of samples withdrawn from LnCaP cell layers; assay type: biochemical; conditions: data not shown
T3 construct: two-chain form consisting of the 20 kDa A-chain and the 30 kDa B-chain (protease domain); purchased American Diagnostica (Greenwich, Conn.)
Experimental: (§1) Confluent LnCaP-34 and LnCaP-17 cells were washed with HBSA-Glucose buffer (20 mM Hepes pH 7.5, 150 mM NaCl, 5 mM CaCl2, 0.05 mg/ml BSA, 5 mM glucose) and 0.8 ml of 100 nM pro-uPA in pre-warmed HBSA-Glucose buffer was added to the cell layers. The inhibitors KD1 or HI-10331 were added to give final concentrations of 1 μM and 10 μM, respectively. The culture plates were kept at 37° C. and 50 μl samples were withdrawn at different time points, supplemented with 0.2 ml of […] S2444 in Hepes buffer and the increase in absorbance at 405 nm measured on a kinetic microplate reader. Cell numbers were determined at the end of the experiments. The concentration of formed uPA in each sample was calculated from a standard curve of enzymatically converted pro-uPA and normalized to 10^6 cells. After subtracting the background levels of uPA formed in the absence of cell layer, the linear rates of uPA formation/10^6 cells were determined.

[2] = tested on: LnCaP-34 cells (hepsin-overexpressing); test: Pro-uPA activation by LnCaP-34 cells (two-stage enzymatic assay); assay type: cell-based, human
Experimental: as §1

[3] = tested on: LnCaP-34 cells (hepsin-overexpressing); test: Pro-uPA conversion by LnCaP-34 cells, immunoblotting; assay type: cell-based, human; conditions: LnCaP-34, 30 nM pro-uPA, 1 h, 3 h, 5 h, 37° C.
Experimental: For immunoblotting experiments, confluent LnCaP-34 cell layers were washed as above and incubated with 30 nM pro-uPA at 37° C. After 1 hr, 3 hr and 5 hr, aliquots were taken and immediately added to SDS sample buffer. The proteins were separated by SDS-PAGE and transferred onto nitrocellulose filters using the Bio-Rad Semi Dry Transfer system. Pro-uPA and uPA were visualized by using a rabbit polyclonal anti-uPA antibody (Cell Sciences; Canton, Mass.) followed by HRP-conjugated anti-rabbit antibody (Jackson ImmunoResearch Laboratory; West Grove, Pa.) and ECL (GE Healthcare; Piscataway, N.J.) enhancement.

LnCaP-17 cells = test: Pro-uPA activation by LnCaP-17 cells (two-stage enzymatic assay); assay type: cell-based, human
Experimental: as §1

uPA [4] = biological target: T3, uPA; conditions: reference 21; cited from earlier work
uPA [5] = biological target: T3, uPA; test: Enzymatic assay of uPA with chromogenic substrate S2444; assay type: biochemical; conditions: 10 nM uPA, S2444 at Km; read-out: Ki* (apparent equilibrium dissociation constant) ± SD
Experimental: The reversible active site inhibitor HI-10331 (Genentech, Inc.) (having the molecule structure depicted in FIG. 10, and disclosed in U.S. Pat. No. 6,472,393) or HAI-2 were incubated with 0.5 nM hepsin, 0.5 nM matriptase and 10 nM uPA for 30 min in Hepes buffer (20 mM Hepes, pH 7.5, 150 mM NaCl, 5 mM CaCl2, 0.01% Triton X-100) at room temperature. The chromogenic substrates S2366 (for hepsin), S2765 (for matriptase) and S2444 (for uPA) were added at a concentration corresponding to their respective Km values, which were determined in separate experiments. After substrate addition, the linear rates of the increase in absorbance at 405 nm was measured on a kinetic microplate reader (Molecular Devices, Sunnyvale, Calif.).
The Ki values were calculated according to the relationship Ki=IC50/(1+[S]/Km) (23) using the experimentally determined IC50 and Km values for each enzyme-substrate pair. For HAI-2, the apparent Ki values (Ki^*) were determined by fitting the data to the equation for tight binding inhibition (24,25).

Q: Which “Added pro-uPA converted during the experiment” value (pro-uPA) does the source give for “Hepsin: soluble His-tagged extracellular domain of human hepsin (Arg45-Leu417), baculovirus expressed” here?
A: The value was “about 70%”.

Q: What about the “First-order rate constant k ± SD” value (pro-uPA) of the same molecule?
A: Its value is 87.1 ± 11.3 10^−3 min^−1.

Q: What about the “Efficiency of pro-uPA activation compared to matriptase” value (pro-uPA) of the same molecule?
A: Its value is “about 6 fold”.

Q: And the “Cleavage of pro-tPA” value (pro-tPA)?
A: Its value is “does not cleave”.

Q: Which results are given for “KD1: Kunitz domain-1 inhibitor derived from HAI-1B, produced in E. coli (TEDYCLASNKVGRCRGSFPRWYYDPTEQICKSFVYGGCLGNKNNYLREEECILACRGV)”?
A: Inhibition of chromogenic activity of the withdrawn samples (uPA [1]): not inhibited; Inhibition of pro-uPA cleavage ([2]; LnCaP-34, 1 μM KD1): almost completely inhibited; Rate of pro-uPA activation per 10^6 cells ± SD ([2]; LnCaP-34, 1 μM KD1, 100 nM pro-uPA, 37° C.): 0.2 ± 0.1 nM uPA hr^−1; Inhibition of pro-uPA cleavage (immunoblot) [3]: strongly inhibited; Inhibition of pro-uPA cleavage (LnCaP-17 cells; LnCaP-17, 1 μM KD1): almost completely inhibited; Rate of pro-uPA activation per 10^6 cells ± SD (LnCaP-17 cells; LnCaP-17, 1 μM KD1, 100 nM pro-uPA, 37° C.): 0.2 ± 0.2 nM uPA hr^−1; Inhibition of uPA (uPA [4]): does not inhibit

B1: HAI-2: recombinantly expressed soluble hepatocyte growth factor activator inhibitor-2, a bi-Kunitz inhibitor (protein)
chain: ADRERSIHDFCLVSKVVGRCRASMPRWWYNVTDGSCQLFVYGGCDGNSNNYLTKEECLKKCATVTENATGDLATSRNAADSSVPSAPRRQDSEDHSSDMFNYEEYCTANAVTGPCRASFPRWYFDVERNSCNNFIYGGCRGNKNSYRSEEACMLRCFRQQENPPLPLGSK
Q: For B1, which Ki (uPA [5]) is on record?
A: The Ki was over 1000 nM.

B2: Matriptase: matriptase protease domain expressed in E. coli (protein)
chain: VVGGTDADEGEWPWQVSLHALGQGHICGASLISPNWLVSAAHCYIDDRGFRYSDPTQWTAFLGLHDQSQRSAPGVQERRLKRIISHPFFNDFTFDYDIALLELEKPAEYSSMVRPICLPDASHVFPAGKAIWVTGWGHTQYGGTGALILQKGEIRVINQTTCENLLPQQITPRMMCVGFLSGGVDSCQGDSGGPLSSVEADGRIFQAGVVSWGDGCAQRNKPGVYTRLPLFRDWIKENTGV
Q: For B2, which “First-order rate constant k ± SD” value (pro-uPA) is on record?
A: The value was 14.2 ± 4.9 10^−3 min^−1.

B3: Plasmin: Lys-plasmin from Heamatologic Technologies Inc., known pro-uPA activator (protein)
chain: KVYLSECKTGNGKNYRGTMSKTKNGITCQKWSSTSPHRPRFSPATHPSEGLEENYCRNPDNDPQGPWCYTTDPEKRYDYCDILECEEECMHCSGENYDGKISKTMSGLECQAWDSQSPHAHGYIPSKFPNKNLKKNYCRNPDRELRPWCFTTDPNKRWELCDIPRCTTPPPSSGPTYQCLKGTGENYRGNVAVTVSGHTCQHWSAQTPHTHNRTPENFPCKNLDENYCRNPDGKRAPWCHTTNSQVRWEYCKIPSCDSSPVSTEQLAPTAPPELTPVVQDCYHGDGQSYRGTSSTTTTGKKCQSWSSMTPHRHQKTPENYPNAGLTMNYCRNPDADKGPWCFTTDPSVRWEYCNLKKCSGTEASVVAPPPVVLLPDVETPSEEDCMFGNGKGYRGKRATTVTGTPCQDWAAQEPHRHSIFTPETNPRAGLEKNYCRNPDGDVGGPWCYTTNPRKLYDYCDVPQCAAPSFDCGKPQVEPKKCPGRVVGGCVAHPHSWPWQVSLRTRFGMHFCGGTLISPEWVLTAAHCLEKSPRPSSYKVILGAHQEVNLEPHVQEIEVSRLFLEPTRKDIALLKLSSPAVITDKVIPACLPSPNYVVADRTECFITGWGETQGTFGAGLLKEAQLPVIENKVCNRYEFLNGRVQSTELCAGHLAGGTDSCQGDSGGPLVCFEKDKYILQGVTSWGLGCARPNKPGVYVRVSRFVTWIEGVMRNN
Q: With B3 as the molecule, how does the “Added pro-uPA converted during the experiment” value (pro-uPA) read?
A: The value was “about 70%”.

Q: And the “First-order rate constant k ± SD” value (pro-uPA)?
A: Its value is 81.5 ± 14.2 10^−3 min^−1.

Q: And the “Efficiency of pro-uPA activation compared to matriptase” value (pro-uPA)?
A: The value was “about 6 fold”.
